Laboratory results: US20230014722A1

Molecular target: cynomolgus PD-1 (Sino Biological), coated on plates (cynomolgus) (UniProt B0LAJ3)
Assay: ELISA, plates coated with cynomolgus PD-1 at 1 µg/ml

Sequence of cynomolgus PD-1 (Sino Biological), coated on plates (cynomolgus) (B0LAJ3 entry or part of it limits assumed): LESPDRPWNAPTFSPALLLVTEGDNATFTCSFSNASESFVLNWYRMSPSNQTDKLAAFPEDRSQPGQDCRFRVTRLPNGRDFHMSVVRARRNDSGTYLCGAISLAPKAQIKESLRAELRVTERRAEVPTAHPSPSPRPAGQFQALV

- EC50: 0.23 nM
Substance: Keytruda (antibody)
